Experimental data from patent US20180244777A1 (NUMAB THERAPEUTICS, published 2018).

Columns and labels:
[1] = target: human CD3ε expressed on the cell surface of T cells (Jurkat cells; human CD8+ T cells) (human) (UniProt P07766); experiment: cell-based or functional assay
[2] = target: T1, human CD3ε expressed on the cell surface of T cells (Jurkat cells; human CD8+ T cells) (human, UniProt P07766 23-207); experiment: cell-based ELISA on Jurkat cells, CD3ε-deficient Jurkat subtracted
T1 construct: whole, on cells; also called native CD3ε embedded in the TCR complex on Jurkat cells
Description: Jurkat cells (clone E6-1), a human T cell line, were seeded at 300,000 cells/well in round bottom 96-well plates in 100 μl phosphate-buffered saline (PBS) containing 10% FBS. Five-fold serial dilutions of anti-CD3 rabbit monoclonal antibodies ranging from 90 nM to 0.0058 nM were added to the plates in 100 μl PBS containing 10% FBS. […] This secondary antibody was linked to the enzyme horseradish peroxidase (HRP). HRP activity was measured by addition of TMB substrate (3,3′,5,5′-tetramethylbenzidine, KPL, Cat. No. 53-00-00), which in a colorimetric reaction is processed by the HRP. The color intensity of the processed substrate is directly proportional to the amount of anti-CD3 antibody bound to Jurkat cells. To quantify color intensity, light absorbance (optical density) at the respective wave length was measured using a microtiter plate reader (Infinity reader M200 Pro, Tecan).
To correct for unspecific binding of the antibodies to unknown components presented on the cell surface of Jurkat cells, a CD3ε deficient derivative of the Jurkat T cell line (J.RT3-T3.5) was used. Binding of the monoclonal antibodies to this cell line was measured as described above for the Jurkat cells. For quantification of specific binding to Jurkat cells, the optical density for binding to the negative control was subtracted from the optical density for binding to Jurkat cells. Data were analyzed using a four-parameter logistic curve fit using the Softmax Data Analysis Software (Molecular Devices), and the molar concentration of anti-CD3 antibody required to reach 50% binding (EC₅₀, mid-OD of the standard curve) was derived from dose response curves.

[3] = target: T2, cynomolgus monkey heterodimeric single-chain CD3εγ extracellular domain (cynomolgus monkey, UniProt Q95LI5 22-117; Q95LI7 23-113); experiment: SPR, rabbit IgG captured, cyno single-chain CD3εγ ECD injected
T2 sequence (Q95LI7 other isoform, or with tags, fused parts or gaps): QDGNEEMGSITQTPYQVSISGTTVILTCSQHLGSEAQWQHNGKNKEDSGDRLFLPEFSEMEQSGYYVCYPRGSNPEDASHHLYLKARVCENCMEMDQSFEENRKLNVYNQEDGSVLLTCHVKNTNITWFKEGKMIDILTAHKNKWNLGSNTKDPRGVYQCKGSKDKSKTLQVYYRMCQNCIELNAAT

[4] = target: T2, cynomolgus monkey heterodimeric …; experiment: SPR; ratio of the KDs for cyno and human single-chain CD3εγ
[5] = target: T3, human heterodimeric single-chain CD3εγ extracellular domain (human, UniProt P07766 23-126; P09693 23-116); experiment: SPR, rabbit IgG captured, human single-chain CD3εγ ECD injected
T3 construct: extracellular domain; Produced in-house; also called scCD3γε; human CD3ge
Description: Binding affinities of monoclonal rabbit anti-CD3 antibodies were measured by surface plasmon resonance (SPR) using a MASS-1 SPR instrument (Sierra Sensors). […] Rabbit monoclonal antibodies were captured by the immobilized anti-rabbit IgG antibody. Two-fold serial dilutions of human heterodimeric single-chain CD3εγ extracellular domain (produced in-house) ranging from 90 to 2.81 nM were injected into the flow cells for 3 min and dissociation of the protein from the IgG captured on the sensor chip was allowed to proceed for 5 min. After each injection cycle, surfaces were regenerated with two injections of 10 mM glycine-HCl. The apparent dissociation (kd) and association (ka) rate constants and the apparent dissociation equilibrium constant (KD) were calculated with the MASS-1 analysis software (Analyzer, Sierra Sensors) using one-to-one Langmuir binding model.

[6] = target: T1, human CD3ε expressed on the cell …; experiment: cell-based or functional assay

| Fold increase in CD69 expression [MFI normalized to neg. ctrl.], 1.25 µg/ml anti-CD3 IgG [1] [fold] | Fold increase in CD69 expression [MFI normalized to neg. ctrl.], 5 µg/ml anti-CD3 IgG [1] [fold] | Fold increase in CD69 expression [MFI normalized to neg. ctrl.], 20 µg/ml anti-CD3 IgG [1] [fold] | EC50 [2] [nM] | Kd [3] [nM] | koff [3] [s⁻¹] | kon [3] [M⁻¹ s⁻¹] | KD (human)/KD (cyno) [4] | Kd [5] [nM] | koff [5] [s⁻¹] | kon [5] [M⁻¹ s⁻¹] | Fold increase in CD69 expression [MFI normalized to neg. ctrl.], 1.25 µg/ml anti-CD3 IgG [6] [fold] | Fold increase in CD69 expression [MFI normalized to neg. ctrl.], 5 µg/ml anti-CD3 IgG [6] [fold] | Fold increase in CD69 expression [MFI normalized to neg. ctrl.], 20 µg/ml anti-CD3 IgG [6] [fold] | Molecule |
| --- | --- | --- | --- | --- | --- | --- | --- | --- | --- | --- | --- | --- | --- | --- |
| – | – | – | 0.35 | 10.9 | 0.00349 | 321000 | 7 | 1.66 | 0.00126 | 757000 | 2.6 | 4.2 | 6.2 | clone-10 (antibody, V domains shown, Recombinant rabbit IgG) VH: QSLEESGGRLVTPGTPLTLTCTVSGFPLSSFAMLWVRQAPGKGLEWIGMIMRAHNMYYASWAKGRFTISKTSTTVDLEITSPTTEDTATYFCARRHYNTYGYPIAIGDLWGPGTLVTVSS VL: AQVLTQTPSSVSAAVGGTATISCQSNENIYSNNRLSWFQQKAGQPPNQLIYSASSLASGVPSRFKGSGSGTQFTLTISDLECDDAATYYCQGEFSCSSADCFTFGGGTEVVVKG |
| – | – | – | 0.28 | 10 | 0.00365 | 363000 | 3 | 3.13 | 0.00133 | 425000 | – | – | – | clone-11 (antibody, V domains shown, Recombinant rabbit IgG) VH: QSLEESGGRLVTPGTPLTLTCTVSGFPLSSYAMGWFRQAPGKGLEWIGMILRADNTYYASWVNGRFTISKTSTTVDLKITSPTTEDTATYFCARRHYNTYGYPVAIGDLWGPGTLVTVSS VL: AQVLTQTPSSVSAAVGGTVTINCQSSQSVYNNNRLSWFQQKPGQPPKLLIYTASSLASGVPSRFKGSGSGTEFTLTISDLECADAATYYCQGEFSCSSADCFTFGGGTEVVVKG |
| – | – | – | 0.59 | 22.2 | 0.00314 | 142000 | 20 | 1.11 | 0.000798 | 721000 | – | – | – | clone-12 (antibody, V domains shown, Recombinant rabbit IgG) VH: QSLEESGGRLVTPGTPLTLTCTVSGFPLSRYAMLWVRQAPGKGLEWIGLITRADNKYYASWAKGRFTISKTSTTVDLEITSPTTEDTATYFCARRHYNTDGYPIAIGDLWGPGTLVTVSS VL: AQVLTQTPSSVSATVGGTVTISCQSNENIYSNNRLSWFQQKPGQPPKLLIYSASSLASGVPSRFKGSGSGTQFTLTISDLECDDAATYYCQGEFNCNSADCFTFGGGTEVVVKG |

More lines, now with the values behind:

| Molecule | Fold increase in CD69 expression [MFI normalized to neg. ctrl.], 1.25 µg/ml anti-CD3 IgG [1] [fold] | Fold increase in CD69 expression [MFI normalized to neg. ctrl.], 5 µg/ml anti-CD3 IgG [1] [fold] | Fold increase in CD69 expression [MFI normalized to neg. ctrl.], 20 µg/ml anti-CD3 IgG [1] [fold] | EC50 [2] [nM] | Kd [3] [nM] | koff [3] [s⁻¹] | kon [3] [M⁻¹ s⁻¹] | KD (human)/KD (cyno) [4] | Kd [5] [nM] | koff [5] [s⁻¹] | kon [5] [M⁻¹ s⁻¹] | Fold increase in CD69 expression [MFI normalized to neg. ctrl.], 1.25 µg/ml anti-CD3 IgG [6] [fold] | Fold increase in CD69 expression [MFI normalized to neg. ctrl.], 5 µg/ml anti-CD3 IgG [6] [fold] | Fold increase in CD69 expression [MFI normalized to neg. ctrl.], 20 µg/ml anti-CD3 IgG [6] [fold] |
| --- | --- | --- | --- | --- | --- | --- | --- | --- | --- | --- | --- | --- | --- | --- |
| OKT3 (antibody) | 1.8 | 2.5 | 3.1 | – | – | – | – | – | – | – | – | – | – | – |
| TR66 (antibody) | 1.6 | 2.2 | 3 | – | – | – | – | – | – | – | – | – | – | – |
| clone-01 (antibody, V domains shown, Recombinant rabbit IgG; also called purified monoclonal rabbit anti-CD3ε antibody clone-01) VH: QSVEESGGRLVTPGTPLTLTCTVSGFPLSSYAMIWVRQAPGKGLEWIGMILRAGNIYYASWAKGRFTISKTSTTVDLKITSPTTEDTATYFCARRQYNTDGYPIGIGDLWGPGTLVTVSS VL: AQVLTQTASSVSAAVGGTVTISCQSSESVYNNNRLSWFQQKPGQPPKQLIYSASSLASGVPSRFKGSGSGTQFTLTISDLECDDAATYYCQGEFSCSSADCFTFGGGTEVVVKG | – | – | – | 0.58 | 10.2 | 0.00392 | 386000 | 3 | 2.97 | 0.00159 | 536000 | – | – | – |
| clone-09 (antibody, V domains shown, Recombinant rabbit IgG) VH: QSLEESGGRLVTPGTPLTLTCTVSGFPLNRYAMLWVRQAPGKGLEWIGLITRADKKYYASWAKGRFTISKTSTTVDLEITGPTTEDTATYFCARRHYNTDGYPVAIGDLWGPGTLVTVSS VL: AQVLTQTPSSVSAAVGGTVTISCQSNENIYSNNRLSWFQQKPGQPPNQLIYSASSLASGVPSRFKGSGSGTQFTLTISDLECDDAATYYCQGEFNCNSADCFTFGGGTEVVVKG | – | – | – | 0.82 | 11.6 | 0.00269 | 232000 | 10 | 1.14 | 0.000688 | 601000 | – | – | – |
